From patent US20140087995A1 (published 2014) come the findings set out here.

Numbered stars: 1 amine (or outer) side, 2 acyl side, 3 side chain; on linkers, the order of the positions; unused ones are H or OH. Bridge positions count the residues as written; N and C are the ends. Side chains are listed from the residue outwards. Ends that are not written are not given here. * marks the point of attachment. C20 diacid = O=C(O)CCCCCCCCCCCCCCCCCCC(=O)*; γGlu = O=C(O)[C@H](CCC(=O)[*:2])N[*:1]; AEEA = NCCOCCOCC(=O)O

The target of test [1] is T1, human calcitonin receptor (human, UniProt P30988 25-474).
T1 construct: whole, on cells; Assayed as cell membranes of BHK tk'ts 13 cells stably transfected with the human calcitonin receptor (Assay VII); also called hCTR; hCT
T1 sequence (looked up): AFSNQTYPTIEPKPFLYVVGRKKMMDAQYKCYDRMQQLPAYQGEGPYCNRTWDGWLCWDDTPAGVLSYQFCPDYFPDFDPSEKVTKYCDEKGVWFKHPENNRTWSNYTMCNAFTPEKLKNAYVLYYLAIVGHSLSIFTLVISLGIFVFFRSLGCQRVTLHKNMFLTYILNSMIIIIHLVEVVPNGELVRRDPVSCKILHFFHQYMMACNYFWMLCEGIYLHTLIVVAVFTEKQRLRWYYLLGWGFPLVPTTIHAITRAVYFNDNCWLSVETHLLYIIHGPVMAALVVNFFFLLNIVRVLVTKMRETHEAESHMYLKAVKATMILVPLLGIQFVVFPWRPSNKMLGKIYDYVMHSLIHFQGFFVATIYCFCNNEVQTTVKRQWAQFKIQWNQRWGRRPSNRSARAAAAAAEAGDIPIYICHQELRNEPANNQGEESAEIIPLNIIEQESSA
Put plainly: IC50 at hCTR divided by IC50 at hAmylin-R (SPA competition assays V and VII). The essentials:
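Competition binding by SPA uses membrane preparations (35 ng/μL final) in pH 7.4 Hepes buffer with 1 mM CaCl2 and 5 mM MgCl₂. Incubation lasts 120 min at 25° C, and IC₅₀ comes from one-site fitting.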

The target of test [2] is T1, human calcitonin receptor. Put plainly: SPA competition vs 125I-calcitonin, membranes of BHK cells with human calcitonin receptor (Assay VII). In a few lines: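 BHK hCTR membranes 35 ng/μL + SPA beads 0.05 mg/well; buffer 50 mM Hepes pH 7.4, 1 mM CaCl2, 5 mM MgCl₂, 0.1% OA, 0.02% Tween20. 120 min, 25° C., shaking. Scintillation count; IC50 by one-site binding competition.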

B1: N^ε1-[2-[2-[2-[[(4S)-4-carboxy-4-(19-carboxynonadecanoylamino)butanoyl]amino]ethoxy]ethoxy]acetyl]-[Thr14,Arg17,Pro21,Pro27,Pro31]-h-amylin (peptide)
peptide: K([AEEA-γGlu-C20 diacid])CNTATCATQRLATFLRHSSPNFGAIPSSTPVGSNTY-NH2
modifications: disulfide 2-7; N-terminus assumed
SMILES: CC[C@H](C)[C@H](NC(=O)[C@H](C)NC(=O)CNC(=O)[C@H](Cc1ccccc1)NC(=O)[C@H](CC(N)=O)NC(=O)[C@@H]1CCCN1C(=O)[C@H](CO)NC(=O)[C@H](CO)NC(=O)[C@H](Cc1c[nH]cn1)NC(=O)[C@H](CCCNC(=N)N)NC(=O)[C@H](CC(C)C)NC(=O)[C@H](Cc1ccccc1)NC(=O)[C@@H](NC(=O)[C@H](C)NC(=O)[C@H](CC(C)C)NC(=O)[C@H](CCCNC(=N)N)NC(=O)[C@H](CCC(N)=O)NC(=O)[C@@H](NC(=O)[C@H](C)NC(=O)[C@@H]1CSSC[C@H](NC(=O)[C@@H](N)CCCCNC(=O)COCCOCCNC(=O)CC[C@H](NC(=O)CCCCCCCCCCCCCCCCCCC(=O)O)C(=O)O)C(=O)N[C@@H](CC(N)=O)C(=O)N[C@@H]([C@@H](C)O)C(=O)N[C@@H](C)C(=O)N[C@@H]([C@@H](C)O)C(=O)N1)[C@@H](C)O)[C@@H](C)O)C(=O)N1CCC[C@H]1C(=O)N[C@@H](CO)C(=O)N[C@@H](CO)C(=O)N[C@H](C(=O)N1CCC[C@H]1C(=O)N[C@H](C(=O)NCC(=O)N[C@@H](CO)C(=O)N[C@@H](CC(N)=O)C(=O)N[C@H](C(=O)N[C@@H](Cc1ccc(O)cc1)C(N)=O)[C@@H](C)O)C(C)C)[C@@H](C)O
notes: also called compound 75
With B1, in test [1], the “Ratio hCT/hAmylin binding” value was 91.4. Besides, the IC50 (as a rule, the point on the concentration scale where inhibition reaches its midpoint) in test [2] worked out at 60.9 nM.

B2: N^ε1-[(4S)-4-carboxy-4-(19-carboxynonadecanoylamino)butanoyl]-[Arg14,Arg17,Pro21,Pro27,Pro34]-h-amylin (peptide)
peptide: K([γGlu-C20 diacid])CNTATCATQRLARFLRHSSPNFGAIPSSTNVGPNTY-NH2
modifications: disulfide 2-7; N-terminus assumed
SMILES: CC[C@H](C)[C@H](NC(=O)[C@H](C)NC(=O)CNC(=O)[C@H](Cc1ccccc1)NC(=O)[C@H](CC(N)=O)NC(=O)[C@@H]1CCCN1C(=O)[C@H](CO)NC(=O)[C@H](CO)NC(=O)[C@H](Cc1c[nH]cn1)NC(=O)[C@H](CCCNC(=N)N)NC(=O)[C@H](CC(C)C)NC(=O)[C@H](Cc1ccccc1)NC(=O)[C@H](CCCNC(=N)N)NC(=O)[C@H](C)NC(=O)[C@H](CC(C)C)NC(=O)[C@H](CCCNC(=N)N)NC(=O)[C@H](CCC(N)=O)NC(=O)[C@@H](NC(=O)[C@H](C)NC(=O)[C@@H]1CSSC[C@H](NC(=O)[C@@H](N)CCCCNC(=O)CC[C@H](NC(=O)CCCCCCCCCCCCCCCCCCC(=O)O)C(=O)O)C(=O)N[C@@H](CC(N)=O)C(=O)N[C@@H]([C@@H](C)O)C(=O)N[C@@H](C)C(=O)N[C@@H]([C@@H](C)O)C(=O)N1)[C@@H](C)O)C(=O)N1CCC[C@H]1C(=O)N[C@@H](CO)C(=O)N[C@@H](CO)C(=O)N[C@H](C(=O)N[C@@H](CC(N)=O)C(=O)N[C@H](C(=O)NCC(=O)N1CCC[C@H]1C(=O)N[C@@H](CC(N)=O)C(=O)N[C@H](C(=O)N[C@@H](Cc1ccc(O)cc1)C(N)=O)[C@@H](C)O)C(C)C)[C@@H](C)O
notes: also called compound 65
For B2, the “Ratio hCT/hAmylin binding” value in test [1] came out at 82.4. For the same molecule, in test [2], the IC50 was 53.5 nM.

B3: N^ε1-[(4S)-4-carboxy-4-(19-carboxynonadecanoylamino)butanoyl]-[Arg14,Arg17,Pro21,Pro27]-h-amylin (peptide)
peptide: K([γGlu-C20 diacid])CNTATCATQRLARFLRHSSPNFGAIPSSTNVGSNTY-NH2
modifications: disulfide 2-7; N-terminus assumed
SMILES: CC[C@H](C)[C@H](NC(=O)[C@H](C)NC(=O)CNC(=O)[C@H](Cc1ccccc1)NC(=O)[C@H](CC(N)=O)NC(=O)[C@@H]1CCCN1C(=O)[C@H](CO)NC(=O)[C@H](CO)NC(=O)[C@H](Cc1c[nH]cn1)NC(=O)[C@H](CCCNC(=N)N)NC(=O)[C@H](CC(C)C)NC(=O)[C@H](Cc1ccccc1)NC(=O)[C@H](CCCNC(=N)N)NC(=O)[C@H](C)NC(=O)[C@H](CC(C)C)NC(=O)[C@H](CCCNC(=N)N)NC(=O)[C@H](CCC(N)=O)NC(=O)[C@@H](NC(=O)[C@H](C)NC(=O)[C@@H]1CSSC[C@H](NC(=O)[C@@H](N)CCCCNC(=O)CC[C@H](NC(=O)CCCCCCCCCCCCCCCCCCC(=O)O)C(=O)O)C(=O)N[C@@H](CC(N)=O)C(=O)N[C@@H]([C@@H](C)O)C(=O)N[C@@H](C)C(=O)N[C@@H]([C@@H](C)O)C(=O)N1)[C@@H](C)O)C(=O)N1CCC[C@H]1C(=O)N[C@@H](CO)C(=O)N[C@@H](CO)C(=O)N[C@H](C(=O)N[C@@H](CC(N)=O)C(=O)N[C@H](C(=O)NCC(=O)N[C@@H](CO)C(=O)N[C@@H](CC(N)=O)C(=O)N[C@H](C(=O)N[C@@H](Cc1ccc(O)cc1)C(N)=O)[C@@H](C)O)C(C)C)[C@@H](C)O
notes: also called compound 83
Regarding B3, in test [1], the “Ratio hCT/hAmylin binding” value came to 146. In addition, in test [2], the IC50 is 137 nM.

B4: N^ε1-[(4S)-4-carboxy-4-(19-carboxynonadecanoylamino)butanoyl]-[Ala14,Arg17,Pro21,Pro27,His34]-h-amylin (peptide)
peptide: K([γGlu-C20 diacid])CNTATCATQRLAAFLRHSSPNFGAIPSSTNVGHNTY-NH2
modifications: disulfide 2-7; N-terminus assumed
SMILES: CC[C@H](C)[C@H](NC(=O)[C@H](C)NC(=O)CNC(=O)[C@H](Cc1ccccc1)NC(=O)[C@H](CC(N)=O)NC(=O)[C@@H]1CCCN1C(=O)[C@H](CO)NC(=O)[C@H](CO)NC(=O)[C@H](Cc1c[nH]cn1)NC(=O)[C@H](CCCNC(=N)N)NC(=O)[C@H](CC(C)C)NC(=O)[C@H](Cc1ccccc1)NC(=O)[C@H](C)NC(=O)[C@H](C)NC(=O)[C@H](CC(C)C)NC(=O)[C@H](CCCNC(=N)N)NC(=O)[C@H](CCC(N)=O)NC(=O)[C@@H](NC(=O)[C@H](C)NC(=O)[C@@H]1CSSC[C@H](NC(=O)[C@@H](N)CCCCNC(=O)CC[C@H](NC(=O)CCCCCCCCCCCCCCCCCCC(=O)O)C(=O)O)C(=O)N[C@@H](CC(N)=O)C(=O)N[C@@H]([C@@H](C)O)C(=O)N[C@@H](C)C(=O)N[C@@H]([C@@H](C)O)C(=O)N1)[C@@H](C)O)C(=O)N1CCC[C@H]1C(=O)N[C@@H](CO)C(=O)N[C@@H](CO)C(=O)N[C@H](C(=O)N[C@@H](CC(N)=O)C(=O)N[C@H](C(=O)NCC(=O)N[C@@H](Cc1c[nH]cn1)C(=O)N[C@@H](CC(N)=O)C(=O)N[C@H](C(=O)N[C@@H](Cc1ccc(O)cc1)C(N)=O)[C@@H](C)O)C(C)C)[C@@H](C)O
notes: also called compound 93
On to B4, for which, in test [1], the “Ratio hCT/hAmylin binding” value was determined as 101. In test [2], the IC50 worked out at 17.8 nM.

B5: N^ε1-[(4S)-4-carboxy-4-(19-carboxynonadecanoylamino)butanoyl]-[Ala14,Arg17,Pro21,Pro27,Pro34]-h-amylin (peptide)
peptide: K([γGlu-C20 diacid])CNTATCATQRLAAFLRHSSPNFGAIPSSTNVGPNTY-NH2
modifications: disulfide 2-7; N-terminus assumed
SMILES: CC[C@H](C)[C@H](NC(=O)[C@H](C)NC(=O)CNC(=O)[C@H](Cc1ccccc1)NC(=O)[C@H](CC(N)=O)NC(=O)[C@@H]1CCCN1C(=O)[C@H](CO)NC(=O)[C@H](CO)NC(=O)[C@H](Cc1c[nH]cn1)NC(=O)[C@H](CCCNC(=N)N)NC(=O)[C@H](CC(C)C)NC(=O)[C@H](Cc1ccccc1)NC(=O)[C@H](C)NC(=O)[C@H](C)NC(=O)[C@H](CC(C)C)NC(=O)[C@H](CCCNC(=N)N)NC(=O)[C@H](CCC(N)=O)NC(=O)[C@@H](NC(=O)[C@H](C)NC(=O)[C@@H]1CSSC[C@H](NC(=O)[C@@H](N)CCCCNC(=O)CC[C@H](NC(=O)CCCCCCCCCCCCCCCCCCC(=O)O)C(=O)O)C(=O)N[C@@H](CC(N)=O)C(=O)N[C@@H]([C@@H](C)O)C(=O)N[C@@H](C)C(=O)N[C@@H]([C@@H](C)O)C(=O)N1)[C@@H](C)O)C(=O)N1CCC[C@H]1C(=O)N[C@@H](CO)C(=O)N[C@@H](CO)C(=O)N[C@H](C(=O)N[C@@H](CC(N)=O)C(=O)N[C@H](C(=O)NCC(=O)N1CCC[C@H]1C(=O)N[C@@H](CC(N)=O)C(=O)N[C@H](C(=O)N[C@@H](Cc1ccc(O)cc1)C(N)=O)[C@@H](C)O)C(C)C)[C@@H](C)O
notes: also called compound 94
B5: in test [1], the “Ratio hCT/hAmylin binding” value is 46.3. For the same molecule, the IC50 in test [2] was found to be 6.86 nM.

B6: N^ε1-[(4S)-4-carboxy-4-(19-carboxynonadecanoylamino)butanoyl]-[Arg14,Arg17,Pro21,Pro27,Pro31]-h-amylin (peptide)
peptide: K([γGlu-C20 diacid])CNTATCATQRLARFLRHSSPNFGAIPSSTPVGSNTY-NH2
modifications: disulfide 2-7; N-terminus assumed
SMILES: CC[C@H](C)[C@H](NC(=O)[C@H](C)NC(=O)CNC(=O)[C@H](Cc1ccccc1)NC(=O)[C@H](CC(N)=O)NC(=O)[C@@H]1CCCN1C(=O)[C@H](CO)NC(=O)[C@H](CO)NC(=O)[C@H](Cc1c[nH]cn1)NC(=O)[C@H](CCCNC(=N)N)NC(=O)[C@H](CC(C)C)NC(=O)[C@H](Cc1ccccc1)NC(=O)[C@H](CCCNC(=N)N)NC(=O)[C@H](C)NC(=O)[C@H](CC(C)C)NC(=O)[C@H](CCCNC(=N)N)NC(=O)[C@H](CCC(N)=O)NC(=O)[C@@H](NC(=O)[C@H](C)NC(=O)[C@@H]1CSSC[C@H](NC(=O)[C@@H](N)CCCCNC(=O)CC[C@H](NC(=O)CCCCCCCCCCCCCCCCCCC(=O)O)C(=O)O)C(=O)N[C@@H](CC(N)=O)C(=O)N[C@@H]([C@@H](C)O)C(=O)N[C@@H](C)C(=O)N[C@@H]([C@@H](C)O)C(=O)N1)[C@@H](C)O)C(=O)N1CCC[C@H]1C(=O)N[C@@H](CO)C(=O)N[C@@H](CO)C(=O)N[C@H](C(=O)N1CCC[C@H]1C(=O)N[C@H](C(=O)NCC(=O)N[C@@H](CO)C(=O)N[C@@H](CC(N)=O)C(=O)N[C@H](C(=O)N[C@@H](Cc1ccc(O)cc1)C(N)=O)[C@@H](C)O)C(C)C)[C@@H](C)O
notes: also called compound 63
Regarding B6, the “Ratio hCT/hAmylin binding” value in test [1] was determined as 157. The IC50 in test [2] stood at 130 nM.
